In assay [1] the target is T1, PMEL17 N-terminal deletion mutant Δ100 (human, UniProt P40967 101-661).
T1 construct: the real construct lacks the N-terminal part; Tested in cell lysates by immunoblot
T1 sequence: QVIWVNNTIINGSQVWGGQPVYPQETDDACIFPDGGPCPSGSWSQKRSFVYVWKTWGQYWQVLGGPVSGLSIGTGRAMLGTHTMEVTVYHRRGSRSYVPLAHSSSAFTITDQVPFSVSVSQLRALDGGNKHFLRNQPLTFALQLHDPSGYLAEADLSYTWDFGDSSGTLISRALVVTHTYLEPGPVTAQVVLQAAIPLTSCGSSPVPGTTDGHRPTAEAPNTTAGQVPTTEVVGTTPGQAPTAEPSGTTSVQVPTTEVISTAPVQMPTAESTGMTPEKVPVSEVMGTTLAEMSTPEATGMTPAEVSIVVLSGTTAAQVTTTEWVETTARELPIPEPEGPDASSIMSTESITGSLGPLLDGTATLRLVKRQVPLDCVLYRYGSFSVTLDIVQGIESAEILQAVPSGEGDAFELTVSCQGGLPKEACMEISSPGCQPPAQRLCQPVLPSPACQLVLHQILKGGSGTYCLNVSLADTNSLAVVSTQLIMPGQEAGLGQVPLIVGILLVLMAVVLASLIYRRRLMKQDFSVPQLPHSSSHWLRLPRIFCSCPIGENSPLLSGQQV
The assay can be described thus: immunoblot of cell lysates. (Immunoblotting shows a protein as a band on a membrane.)

Assay [2] concerns the target T2, PMEL17 N-terminal deletion mutant Δ255 (human, UniProt P40967 256-661).
T2 construct: the real construct lacks the N-terminal part; Tested in cell lysates by immunoblot
T2 sequence: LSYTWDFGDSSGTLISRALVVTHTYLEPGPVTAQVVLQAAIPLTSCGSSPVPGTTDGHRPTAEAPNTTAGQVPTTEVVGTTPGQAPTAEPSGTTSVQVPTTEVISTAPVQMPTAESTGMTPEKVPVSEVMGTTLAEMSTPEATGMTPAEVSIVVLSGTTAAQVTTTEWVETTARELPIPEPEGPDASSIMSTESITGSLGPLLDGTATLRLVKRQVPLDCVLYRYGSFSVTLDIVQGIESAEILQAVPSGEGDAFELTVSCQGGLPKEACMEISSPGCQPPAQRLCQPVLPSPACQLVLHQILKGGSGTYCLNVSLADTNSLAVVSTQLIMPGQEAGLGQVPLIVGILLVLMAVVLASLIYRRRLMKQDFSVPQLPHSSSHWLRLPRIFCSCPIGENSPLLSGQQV
The assay can be described thus: immunoblot of cell lysates.

In assay [3] the target is T3, full-length human PMEL17 with an N-terminal gD tag (human, UniProt P40967 25-661).
T3 construct: it is left out here; also called full-length PMEL17; N-terminal gD tagged PMEL17 (human)
T3 sequence: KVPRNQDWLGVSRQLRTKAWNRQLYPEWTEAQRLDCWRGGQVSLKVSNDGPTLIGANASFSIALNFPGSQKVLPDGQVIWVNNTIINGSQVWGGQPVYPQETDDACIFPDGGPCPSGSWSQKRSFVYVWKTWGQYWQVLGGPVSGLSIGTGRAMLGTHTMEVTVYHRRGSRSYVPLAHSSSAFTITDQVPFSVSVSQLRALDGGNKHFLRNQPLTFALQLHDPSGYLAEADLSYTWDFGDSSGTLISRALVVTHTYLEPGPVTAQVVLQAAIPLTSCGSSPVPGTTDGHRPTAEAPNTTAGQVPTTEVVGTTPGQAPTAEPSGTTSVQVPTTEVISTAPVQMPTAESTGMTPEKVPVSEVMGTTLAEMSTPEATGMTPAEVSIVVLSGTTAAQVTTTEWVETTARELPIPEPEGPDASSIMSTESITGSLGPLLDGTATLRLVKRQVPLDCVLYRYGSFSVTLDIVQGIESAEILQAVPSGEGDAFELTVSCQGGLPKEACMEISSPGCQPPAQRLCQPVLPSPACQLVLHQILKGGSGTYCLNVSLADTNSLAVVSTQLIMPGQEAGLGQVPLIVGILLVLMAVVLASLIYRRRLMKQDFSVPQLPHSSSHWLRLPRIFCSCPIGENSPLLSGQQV
The assay can be described thus: immunoblot of cell lysates.

Assay [4] addresses T4, PMEL17 25-125 with an N-terminal gD tag and a C-terminal GPI anchor (human, UniProt P40967 25-125, C-terminal GPI anchor).
T4 construct: C-terminal deletion, transiently expressed on 293 cells
T4 sequence: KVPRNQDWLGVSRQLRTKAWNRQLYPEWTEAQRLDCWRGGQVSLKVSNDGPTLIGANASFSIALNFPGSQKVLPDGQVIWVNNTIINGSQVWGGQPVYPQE
The assay can be described thus: FACS on transiently transfected 293 cells. The source says: (§1) In addition, C-terminal deletions with an N-terminal gD tag and a C-terminal GPI anchor were transiently transfected into 293 cells and analyzed for antibody binding by FACS. The C-terminal deletions tested included PMEL172₅₋₁₂₅, PMEL17₂₅₋₁₀₅, PMEL17₂₅₋₈₅, PMEL17₂₅₋₆₅, and PMEL17₂₅₋₄₅.

The target of assay [5] is T5, PMEL17 25-105 with an N-terminal gD tag and a C-terminal GPI anchor (human, UniProt P40967 25-105, C-terminal GPI anchor).
T5 construct: C-terminal deletion, transiently expressed on 293 cells
T5 sequence: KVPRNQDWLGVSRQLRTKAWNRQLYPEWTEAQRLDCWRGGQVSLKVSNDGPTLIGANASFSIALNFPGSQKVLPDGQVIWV
The assay can be described thus: FACS on transiently transfected 293 cells.
Description: as §1

Assay [6] has as its target T6, PMEL17 25-85 with an N-terminal gD tag and a C-terminal GPI anchor (human, UniProt P40967 25-85, C-terminal GPI anchor).
T6 construct: C-terminal deletion, transiently expressed on 293 cells
T6 sequence: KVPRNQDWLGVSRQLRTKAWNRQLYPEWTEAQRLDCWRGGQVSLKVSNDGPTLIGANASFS
The assay can be described thus: FACS on transiently transfected 293 cells.
Description: as §1

Assay [7] has as its target T7, PMEL17 25-65 with an N-terminal gD tag and a C-terminal GPI anchor (human, UniProt P40967 25-65, not fully specified; C-terminal GPI anchor).
T7 construct: C-terminal deletion, transiently expressed on 293 cells
T7 chain: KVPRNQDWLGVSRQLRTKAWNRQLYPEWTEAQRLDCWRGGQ
Briefly: FACS on transiently transfected 293 cells.
Description: as §1

The record followed here is patent publication US20170240645A1 (Genentech, published 2017).

B1: 17A9 (antibody, V domains shown)
VH: EVQLQQSGPELVKPGASMKISCKSSGYSFTRYTMNWVKQSHGKNLEWIGVINPYNGGTVYNQKFKGKATLTVDKSSSTAYMELLSLTSEDSAVYYCARTDYDGYAMDYWGQGTSVTVSS
VL: DVQITQSPSYLAASPGETITINCRATKSISKYLAWYQEQPGKTNNLLIYSGSTLQSGIPSRFSGSGSGTDFTLTISSLEPEDFAMYYCQQHNEYPYTFGSGTKLEIK
notes: Mouse monoclonal antibody from a hybridoma (mice immunized with PMEL17 ECD-Fc); also called anti-PMEL17 antibody 17A9
For B1, the binding result in assay [1] is “no binding”; in assay [2], “no binding”; in assay [3], “binds”; in assay [4] it was “binds”; in assay [5], “no binding”; in assay [6] it was “no binding”. The binding result in assay [7] is recorded as “no binding”.
